Here are results for 32 molecules from patent publication US20240270846A1 (published 2024).

B1: GLS3000 T31P one-arm antibody (antibody, human IgG1, kappa, L234A L235A, N297A, name in Kabat numbering)
light: DIVMTQSPLSLPVTPGEPASISCRSSQSLVHSNRNPYLHWYQQKPGQAPRLLIYKVSNRFSGVPDRFSGSGSGTDFTLKISRVEAEDVGVYYCGQGTQVPYTFGQGTKLEIKRTVAAPSVFIFPPSDEQLKSGTASVVCLLNNFYPREAKVQWKVDNALQSGNSQESVTEQDSKDSTYSLSSTLTLSKADYEKHKVYACEVTHQGLSSPVTKSFNRGEC
heavy: QVQLVESGGGVVQPGRSLRLSCAASGFTFSNAWMHWVRQAPGKGLEWVAQIKAKSNNYATYYAESVKGRFTISRDDSKNSLYLQMNSLKTEDTAVYYCRYVHYGAYYGVDAWGQGTTVTVSSASTKGPSVFPLAPSSKSTSGGTAALGCLVKDYFPEPVTVSWNSGALTSGVHTFPAVLQSSGLYSLSSVVTVPSSSLGTQTYICNVNHKPSNTKVDKKVEPKSCDKTHTCPPCPAPEAAGGPSVFLFPPKPKDTLMISRTPEVTCVVVDVSHEDPEVKFNWYVDGVEVHNAKTKPREEQYASTYRVVSVLTVLHQDWLNGKEYKCKVSNKALPAPIEKTISKAKGQPREPQVYTLPPSRCELTKNQVSLSCAVKGFYPSDIAVEWESNGQPENNYKTTPPVLDSDGSFFLVSKLTVDKSRWQQGNVFSCSVMHEALHNHYTQKSLSLSPDYKDDDDK
chain: EPKSSDKTHTCPPCPAPELLGGPSVFLFPPKPKDTLMISRTPEVTCVVVDVSHEDPEVKFNWYVDGVEVHNAKTKPREEQYNSTYRVVSVLTVLHQDWLNGKEYKCKVSNKALPAPIEKTISKAKGQPREPQVCTLPPSRDELTKNQVSLWCLVKGFYPSDIAVEWESNGQPENNYKTTPPVLDSDGSFFLYSKLTVDKSRWQQGNVFSCSVMHEALHNRYTQKSLSLSP
B2: GLS3000 V51G one-arm antibody (antibody, human IgG1, kappa, L234A L235A, N297A, name in Kabat numbering)
light: B1 light with P36T, V56G
heavy: B1 heavy
chain: B1 chain
B3: GLS3000 V94L one-arm antibody (antibody, human IgG1, kappa, L234A L235A, N297A, name in Kabat numbering)
light: B1 light with P36T, V99L
heavy: B1 heavy
chain: B1 chain
B4: GLS3000 T92L one-arm antibody (antibody, human IgG1, kappa, L234A L235A, N297A, name in Kabat numbering)
light: B1 light with P36T, T97L
heavy: B1 heavy
chain: B1 chain
B5: GLS3000 V94Q one-arm antibody (antibody, human IgG1, kappa, L234A L235A, N297A, name in Kabat numbering)
light: B1 light with P36T, V99Q
heavy: B1 heavy
chain: B1 chain
B6: GLS3000 T92A one-arm antibody (antibody, human IgG1, kappa, L234A L235A, N297A, name in Kabat numbering)
light: B1 light with P36T, T97A
heavy: B1 heavy
chain: B1 chain
B7: GLS3000 T92P one-arm antibody (antibody, human IgG1, kappa, L234A L235A, N297A, name in Kabat numbering)
light: B1 light with P36T, T97P
heavy: B1 heavy
chain: B1 chain
B8: GLS3000 Y32F one-arm antibody (antibody, human IgG1, kappa, L234A L235A, N297A, name in Kabat numbering)
light: B1 light with P36T, Y37F
heavy: B1 heavy
chain: B1 chain
B9: GLS3000 V94K one-arm antibody (antibody, human IgG1, kappa, L234A L235A, N297A, name in Kabat numbering)
light: B1 light with P36T, V99K
heavy: B1 heavy
chain: B1 chain
B10: GLS3000 V94F one-arm antibody (antibody, human IgG1, kappa, L234A L235A, N297A, name in Kabat numbering)
light: B1 light with P36T, V99F
heavy: B1 heavy
chain: B1 chain
B11: GLS3000 V94I one-arm antibody (antibody, human IgG1, kappa, L234A L235A, N297A, name in Kabat numbering)
light: B1 light with P36T, V99I
heavy: B1 heavy
chain: B1 chain
B12: GLS3000 T97P one-arm antibody (antibody, human IgG1, kappa, L234A L235A, N297A, name in Kabat numbering)
light: B1 light with P36T, T102P
heavy: B1 heavy
chain: B1 chain
B13: GLS3000 V94D one-arm antibody (antibody, human IgG1, kappa, L234A L235A, N297A, name in Kabat numbering)
light: B1 light with P36T, V99D
heavy: B1 heavy
chain: B1 chain
B14: GLS3000 V51P one-arm antibody (antibody, human IgG1, kappa, L234A L235A, N297A, name in Kabat numbering)
light: B1 light with P36T, V56P
heavy: B1 heavy
chain: B1 chain
B15: GLS3000 V51I one-arm antibody (antibody, human IgG1, kappa, L234A L235A, N297A, name in Kabat numbering)
light: B1 light with P36T, V56I
heavy: B1 heavy
chain: B1 chain
B16: GLS3000 T92E one-arm antibody (antibody, human IgG1, kappa, L234A L235A, N297A, name in Kabat numbering)
light: B1 light with P36T, T97E
heavy: B1 heavy
chain: B1 chain
B17: GLS3000 V94E one-arm antibody (antibody, human IgG1, kappa, L234A L235A, N297A, name in Kabat numbering)
light: B1 light with P36T, V99E
heavy: B1 heavy
chain: B1 chain
B18: GLS3000 V94P one-arm antibody (antibody, human IgG1, kappa, L234A L235A, N297A, name in Kabat numbering)
light: B1 light with P36T, V99P
heavy: B1 heavy
chain: B1 chain
B19: GLS3000 T92D one-arm antibody (antibody, human IgG1, kappa, L234A L235A, N297A, name in Kabat numbering)
light: B1 light with P36T, T97D
heavy: B1 heavy
chain: B1 chain
B20: GLS3000 Y96D one-arm antibody (antibody, human IgG1, kappa, L234A L235A, N297A, name in Kabat numbering)
light: B1 light with P36T, Y101D
heavy: B1 heavy
chain: B1 chain
B21: GLS3000 V94H one-arm antibody (antibody, human IgG1, kappa, L234A L235A, N297A, name in Kabat numbering)
light: B1 light with P36T, V99H
heavy: B1 heavy
chain: B1 chain
B22: GLS3000 V51E one-arm antibody (antibody, human IgG1, kappa, L234A L235A, N297A, name in Kabat numbering)
light: B1 light with P36T, V56E
heavy: B1 heavy
chain: B1 chain
B23: GLS3000 V94R one-arm antibody (antibody, human IgG1, kappa, L234A L235A, N297A, name in Kabat numbering)
light: B1 light with P36T, V99R
heavy: B1 heavy
chain: B1 chain
B24: GLS3000 V94M one-arm antibody (antibody, human IgG1, kappa, L234A L235A, N297A, name in Kabat numbering)
light: B1 light with P36T, V99M
heavy: B1 heavy
chain: B1 chain
B25: GLS3000 V94N one-arm antibody (antibody, human IgG1, kappa, L234A L235A, N297A, name in Kabat numbering)
light: B1 light with P36T, V99N
heavy: B1 heavy
chain: B1 chain
B26: GLS3000 T92I one-arm antibody (antibody, human IgG1, kappa, L234A L235A, N297A, name in Kabat numbering)
light: B1 light with P36T, T97I
heavy: B1 heavy
chain: B1 chain
B27: GLS3000 V94T one-arm antibody (antibody, human IgG1, kappa, L234A L235A, N297A, name in Kabat numbering)
light: B1 light with P36T, V99T
heavy: B1 heavy
chain: B1 chain
B28: GLS3000 T92S one-arm antibody (antibody, human IgG1, kappa, L234A L235A, N297A, name in Kabat numbering)
light: B1 light with P36T, T97S
heavy: B1 heavy
chain: B1 chain
B29: GLS3000 V94S one-arm antibody (antibody, human IgG1, kappa, L234A L235A, N297A, name in Kabat numbering)
light: B1 light with P36T, V99S
heavy: B1 heavy
chain: B1 chain
B30: GLS3000 V94W one-arm antibody (antibody, human IgG1, kappa, L234A L235A, N297A, name in Kabat numbering)
light: B1 light with P36T, V99W
heavy: B1 heavy
chain: B1 chain
B31: GLS3000 V94G one-arm antibody (antibody, human IgG1, kappa, L234A L235A, N297A, name in Kabat numbering)
light: B1 light with P36T, V99G
heavy: B1 heavy
chain: B1 chain
B32: GLS3000 Y32P one-arm antibody (antibody, human IgG1, kappa, L234A L235A, N297A, name in Kabat numbering)
light: B1 light with P36T, Y37P
heavy: B1 heavy
chain: B1 chain

Positions count from the first letter of the chain named. Names and notes keep the numbering of the source.

The target in this test is T1, CD3 epsilon homodimer protein (UniProt P07766 23-126).
T1 construct: Construct of the homodimer is not described; also called CD3 (CD3 epsilon)
T1 sequence (P07766 23-126): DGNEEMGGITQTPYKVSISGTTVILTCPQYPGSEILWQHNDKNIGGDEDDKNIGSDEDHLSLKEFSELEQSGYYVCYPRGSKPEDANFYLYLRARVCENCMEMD
Put plainly: SPR Biacore T200, CD3e homodimer on chip, antibody analyte.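 Further: CD3 epsilon homodimer amine-coupled on CM4 sensor chip, antibodies injected as analyte at 25 °C in HBS-EP+, ratio ≥0.8 taken as binding retained versus unaltered parent antibody.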 In general terms: In SPR one partner is held on a chip, and binding of the other changes the refractive index at the surface.
In the case of B1, the “ratio of amounts bound (altered form/GLS3000)” value came to 0.31.

On to B2, for which the “ratio of amounts bound (altered form/GLS3000)” value was 0.84.

For B3, the “ratio of amounts bound (altered form/GLS3000)” value turned out to be 0.44.

For the molecule B4, the “ratio of amounts bound (altered form/GLS3000)” value is 0.42.

As for B5, the “ratio of amounts bound (altered form/GLS3000)” value stood at 0.76.

In the case of B6, the “ratio of amounts bound (altered form/GLS3000)” value is 0.63.

With B7, the “ratio of amounts bound (altered form/GLS3000)” value worked out at 0.26.

With B8, the “ratio of amounts bound (altered form/GLS3000)” value was 0.29.

Regarding B9, the “ratio of amounts bound (altered form/GLS3000)” value is 0.57.

As to B10, the “ratio of amounts bound (altered form/GLS3000)” value was 0.71.

Regarding B11, the “ratio of amounts bound (altered form/GLS3000)” value amounted to 0.66.

As to B12, the “ratio of amounts bound (altered form/GLS3000)” value was determined as 0.31.

B13: the “ratio of amounts bound (altered form/GLS3000)” value turned out to be 0.89.

As to B14, the “ratio of amounts bound (altered form/GLS3000)” value turned out to be 0.32.

For the molecule B15, the “ratio of amounts bound (altered form/GLS3000)” value worked out at 0.81.

Regarding B16, the “ratio of amounts bound (altered form/GLS3000)” value worked out at 0.17.

As for B17, the “ratio of amounts bound (altered form/GLS3000)” value amounted to 0.5.

On to B18, for which the “ratio of amounts bound (altered form/GLS3000)” value was found to be 1.26.

As to B19, the “ratio of amounts bound (altered form/GLS3000)” value was 0.18.

Turning to B20, the “ratio of amounts bound (altered form/GLS3000)” value was 0.17.

On to B21, for which the “ratio of amounts bound (altered form/GLS3000)” value amounted to 0.78.

In the case of B22, the “ratio of amounts bound (altered form/GLS3000)” value turned out to be 0.64.

For B23, the “ratio of amounts bound (altered form/GLS3000)” value worked out at 0.66.

In the case of B24, the “ratio of amounts bound (altered form/GLS3000)” value turned out to be 0.44.

Turning to B25, the “ratio of amounts bound (altered form/GLS3000)” value worked out at 1.05.

Regarding B26, the “ratio of amounts bound (altered form/GLS3000)” value came to 0.34.

Regarding B27, the “ratio of amounts bound (altered form/GLS3000)” value was 0.93.

On to B28, for which the “ratio of amounts bound (altered form/GLS3000)” value was determined as 0.96.

As to B29, the “ratio of amounts bound (altered form/GLS3000)” value was 0.93.

Consider B30, for which the “ratio of amounts bound (altered form/GLS3000)” value was found to be 0.58.

Take B31: the “ratio of amounts bound (altered form/GLS3000)” value is 0.48.

Take B32: the “ratio of amounts bound (altered form/GLS3000)” value turned out to be 0.24.
